According to US20230218776A1, “ANTI-NTB-A ANTIBODIES AND RELATED COMPOSITIONS AND METHODS” (SEAGEN INC., priority 2015, published 2023):
“Also recorded” adds a separate entry of the source. Read-outs that look alike come from different tables or passages of the source. Where a SMILES comes first, the peptide text is derived from it. [ ]: non-standard residue; d: D form. The star is where a group is joined. Dolaproine = CO[C@@H]([C@@H]1CCCN1)[C@@H](C)C(=O)O; Dil = CC[C@H](C)[C@H](NC)[C@@H](CC(=O)O)OC; X1 = C[C@@H](N*)[C@@H](O)c1ccccc1; NMeV = CN[C@H](C(=O)O)C(C)C

Columns and labels:
[1] = test system: resting human B lymphocytes; test: Cytotoxicity on resting human lymphocytes, Cell-Titer Glo, 96 hours; format: cell-based; conditions: for IC50: 96 hours; for ADC concentration with cytotoxic effect on resting B lymphocytes: resting human B lymphocytes, 96 hour cytotoxicity assay
Experimental: (§1) To assess the cytotoxic effects of anti-NTB-A ADCs on resting human T and B lymphocytes, purified cells were seeded into black 96-well assay plates. Cells were then treated with anti-NTB-A ADCs starting at 10 ug/mL titrated down 5-fold for a total of 8 dilution points. For free drug treatment, cells were dosed with either MMAE starting at 1,000 nM or free PBD dimer starting at 100 nM titrated down 5-fold for a total of 8 dilution points. Plates were incubated at 37° C., 5% CO2 for 96 hours then allowed to equilibrate to room temperature. An equal volume of Cell-Titer Glo reagent was added to each well and the plate was incubated an additional 30 minutes at room temperature. Plates were then read on a Perkin Elmer Envision plate reader. Dose effect curves and IC50 values were calculated using GraphPad Prism software.

[2] = test system: resting human T lymphocytes; test: as above; format: cell-based
Experimental: as §1

Normal human T cells [3] = test: Complement-dependent cytotoxicity (CDC), Sytox Green; format: cell-based; conditions: 0.02-50 μg/mL, human serum, 2 hours
Experimental: (§2) Complement-Dependent Cytotoxicity (CDC): Normal human T cells (All Cells, Alameda, Calif.) or cancer cell lines (ATCC, Manassas, Va.) were labelledlabeled with 5 μM Sytox Green (Life Technologies, Grand Island, N.Y.), then bound with serial a serial dose titrations of anti-human NTB-A h20F3 antibody or PBD dimer ADCies (0.02-50 μg/mL) in RPMI1640 media+1020% human serum (Complement Technology, Tyler, TX or Solomon Park Research Laboratories, Kirkland, Wash. Cells were incubated at 37° C., 5% CO2 for 2 hours, and fluorescence from lysed cells was measured with an Envision plate reader (Perkin Elmer, Waltham, Mass.). Data was expressed as a percentage of maximum cell lysis determined with a positive control of 1% TritonX-100-treated cells (Sigma, ST. Louis, Mo.).
(§3) Three cell types were used for analysis: normal human T cells, WIL2-S cells, and Raji cells. Expression of relevant receptors on each cell type is found in Table 7 and is indicated as number of receptor per cell.

Normal human T cells [4] = test: ADCP with monocyte-derived macrophages; format: cell-based; conditions: dilution series starting at 2 μg/mL
Experimental: (§4) To assess NTB-A mediated ADCP activity, normal T lymphocytes or tumor cells were labeled with the red fluorescent membrane dye, PKH26, then labeled with antibody or ADC in a 5-point, 10-fold dilution series starting at 2 μg/mL. Cells were then incubated for 30 minutes on ice and washed twice with PBS. Cells were mixed with monocyte-derived macrophages for one hour at 37° C. The cell mixture was then stained with Alexa Fluor 488-conjugated murine anti-CD11b to label macrophages and analyzed by flow cytometry to detect PKH26+CD11b+ double-labeled fluorescent cells. Phagocytic activity was calculated as (percent PKH26+CD11b+)/(percent CD11b+cells) multiplied by one hundred.

Normal human T cells [5] = test: ADCC, flow cytometry-based assay with NK effector cells; format: cell-based; conditions: NK effector to target 10:1, 4 hours
Experimental: A flow cytometry-based assay was used to measure ADCC activity on normal human T cells. PKH2-labeled normal human T cell targets were bound with titrations of antibody (0.1 ng/mL-10 μg/mL) and then incubated with effector NK cells at an effector to target ratio of 10:1 for 4 hours at 37° C., 5% CO2. Viability was determined by 7-AAD incorporation as measured on the FACsCalibur flow cytometer (BD BioSciences, San Jose, Calif.).

Raji cell line [6] = test: Complement-dependent cytotoxicity (CDC), Sytox Green; format: cell-based; conditions: 0.02-50 μg/mL, human serum, 2 hours
Experimental: as §2, §3

WIL2-S cell line [7] = test: as above; format: cell-based; conditions: 0.02-50 μg/mL, human serum, 2 hours
Experimental: as §2, §3

WIL2-S cell line [8] = test: ADCC, chromium-51 release with NK effector cells; format: cell-based; conditions: NK effector to target 10:1, 4 hours
Experimental: Antibody-Dependent Cellular Cytotoxicity (ADCC) Activity Assay: ADCC cytotoxic activity was measured by chromium-51 release in which effector natural killer (NK) cells kill (lyse) target cells via binding to the antibody or ADC on the target cells. WIL2-S cells were labeled with chromium-51, bound with antibody (0.1 ng/mL-10 μg/mL), and then incubated with NK cells at an effector to target ratio of 10:1 for 4 hours at 37° C., 5% CO2. Supernatant was removed to a filter plate and chromium-51 counts were measured with a TopCount (Perkin Elmer, Waltham, Mass.). Data was expressed as a percentage of maximum specific cell lysis determined with a positive control of 1% TritonX-100-treated cells (Sigma, St. Louis, Mo.).

Raji cell line [9] = test: ADCP with monocyte-derived macrophages; format: cell-based; conditions: dilution series starting at 2 μg/mL
Experimental: as §4

WIL2-S cell line [10] = test: ADCP with monocyte-derived macrophages; format: cell-based; conditions: dilution series starting at 2 μg/mL
Experimental: as §4

cynomolgus-NTB-A = test: Binding to 293-F17 cells overexpressing cynomolgus-NTB-A, flow cytometry; conditions: 293-F17/cynomolgus-NTB-A cells; 20 μg/mL antibody
Experimental: (§5) Dose titrations of the anti-human NTB-A antibodies conjugated to Alexa Fluor 647 (, h20F3_HDLD-AF647) were used to generate saturation binding curves. Antigen positive Ramos cells were plated at 1×10^5 cells per well in a 96 well V-bottom plate (Thermo Scientific, Rochester, N.Y.). Three-fold serial dilutions of 2× concentrated antibodies were prepared in FACs buffer (PBS+2% fetal bovine serum) and were added to the cells in duplicate. The antibody solutions were incubated with cells for 1 hour on ice, protected from light. The cells were washed twice with FACs buffer and analyzed on the LSRII flow cytometer (BD BioSciences, San Jose, Calif.). KD values were determined with GraphPad Prism software (La Jolla, Calif.). Anti-human NTB-A antibodies h20F3_HDLD and chimeric 20F3 were tested for binding to 293-F17 cells overexpressing cynomolgus-NTB-A. 293-F17/cynomolgus-NTB-A cells were plated at 5×10^5 cells/well in FACS buffer (PBS+2% fetal bovine serum+0.02% azide) and incubated with 20 μg/mL antibody for 30 minutes on ice. The cells were washed twice and stained with 30 μg/mL goat anti-human IgG-PE (Jackson ImmunoResearch, West Grove, Pa.) for 30 minutes, on ice and protected from light. Cells were again washed twice with FACs buffer. Stained cells were analyzed on the FACs Calibur flow cytometer (BD BioSciences, San Jose, Calif.).

human NTB-A = molecular target: T1, human NTB-A (Homo sapiens, UniProt Q96DU3); test: Saturation binding (Kd) of AF647-labelled antibody on Ramos cells; conditions: 1 hour on ice
T1 construct: endogenous in cells; host or cells: Ramos cells
T1 sequence (Q96DU3 22-332): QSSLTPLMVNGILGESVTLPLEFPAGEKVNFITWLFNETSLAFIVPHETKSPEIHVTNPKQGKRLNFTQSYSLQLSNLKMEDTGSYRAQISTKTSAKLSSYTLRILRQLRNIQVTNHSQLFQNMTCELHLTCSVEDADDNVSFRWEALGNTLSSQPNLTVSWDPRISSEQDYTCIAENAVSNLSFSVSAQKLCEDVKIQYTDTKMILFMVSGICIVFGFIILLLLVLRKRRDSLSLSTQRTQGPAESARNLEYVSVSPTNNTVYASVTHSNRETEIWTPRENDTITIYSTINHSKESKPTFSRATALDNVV
Experimental: as §5

[11] = Donor 1, B cell, NTB-A receptor # 6,811
[12] = Donor 2, B cell, NTB-A receptor # 11,037
[13] = Donor 3, B cell, NTB-A receptor # 8,771
[14] = Donor 4, T cell, NTB-A receptor # 5,547
[15] = Donor 5, T cell, NTB-A receptor # 7,979
[16] = Donor 6, T cell, NTB-A receptor # 5,522

cynomolgus-NTB-A, sequence (as listed by the source): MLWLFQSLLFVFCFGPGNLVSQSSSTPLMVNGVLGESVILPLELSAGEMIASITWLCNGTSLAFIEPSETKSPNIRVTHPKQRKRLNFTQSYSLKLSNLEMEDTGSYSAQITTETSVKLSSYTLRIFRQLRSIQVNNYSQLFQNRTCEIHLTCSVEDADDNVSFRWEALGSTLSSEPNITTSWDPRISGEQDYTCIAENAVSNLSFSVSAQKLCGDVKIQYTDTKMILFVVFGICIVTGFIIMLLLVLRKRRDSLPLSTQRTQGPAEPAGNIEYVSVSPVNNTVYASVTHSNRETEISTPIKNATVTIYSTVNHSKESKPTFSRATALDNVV

`CC[C@H](C)[C@@H]([C@@H](CC(=O)N1CCC[C@H]1[C@H](OC)[C@@H](C)C(=O)N[C@H](C)[C@@H](O)c1ccccc1)OC)N(C)C(=O)[C@@H](NC(=O)[C@@H](NC)C(C)C)C(C)C` [Free MMAE, monomethyl auristatin E, reference compound] (H-[NMeV]V[Dil][Dolaproine]-X1) showed an IC50 ([1]; Donor 1, B cell, NTB-A receptor # 6,811, free drug, read-out: IC50) of 3 nM, an IC50 ([1]; Donor 2, B cell, NTB-A receptor # 11,037, free drug, read-out: IC50) of 2 nM and an IC50 ([1]; Donor 3, B cell, NTB-A receptor # 8,771, free drug, read-out: IC50) of 5 nM. The IC50 ([2]; Donor 4, T cell, NTB-A receptor # 5,547, free drug, read-out: IC50) was over 1000 nM, the IC50 ([2]; Donor 5, T cell, NTB-A receptor # 7,979, free drug, read-out: IC50) was over 1000 nM and the IC50 ([2]; Donor 6, T cell, NTB-A receptor # 5,522, free drug, read-out: IC50) was over 1000 nM.

For “Campath: anti-CD52 antibody control [reference compound]”, the “CDC Maximum % Specific Cell Lysis” value (Normal human T cells [3]) was 108 ± 5.2%, the “ADCP Maximum % Phagocytosis” value (Normal human T cells [4]) was 57% and the “ADCC Maximum % Specific Cell Lysis” value (Normal human T cells [5]) was 60 ± 3.5%.

In the case of “Rituximab: anti-CD20 antibody control [reference compound]”, the “CDC Maximum % Specific Cell Lysis” value (Raji cell line [6]) is reported as 45 ± 5.7%, the “CDC Maximum % Specific Cell Lysis” value (WIL2-S cell line [7]) is reported as 66 ± 1.4% and the “ADCC Maximum % Specific Cell Lysis” value (WIL2-S cell line [8]) is reported as 42 ± 6.0%. For the same molecule, the “ADCP Maximum % Phagocytosis” value (Raji cell line [9]) was 57% and the “ADCP Maximum % Phagocytosis” value (WIL2-S cell line [10]) was 56%.

B1: c20F3-1910(2) (conjugate)
VH: QIQLVQSGPELKKPGETVKISCKASGYTFTNYGMNWVKQAPGKDLKWMGWINTYSGEPRYADDFKGRFAFSLEKSANTAYLQINNLKNEDMATYFCARDYGRWYFDVWGTGTTVTVSS
VL: QIVLSQSPAILSASPGEKVTMTCRASSSVSHMHWYQQKPGSSPKPWIYATSNLASGVPARFSGSGSGTSYSLTISRVEAEDAATYYCQQWSSTPRTFGGGTKLEIKR
For B1, the IC50 [1, 11] was 1,468 ng/mL, the IC50 [1, 12] was 1,270 ng/mL and the IC50 [1, 13] was 3,421 ng/mL. The “ADC concentration with cytotoxic effect on resting B lymphocytes” value [1] was > 1,000 ng/mL, the IC50 [2, 14] was >10,000 ng/mL and the IC50 [2, 15] was >10,000 ng/mL. The IC50 [2, 16] was >10,000 ng/mL.

B2: chimeric: chimeric form of the 20F3 anti-NTB-A antibody (antibody, V domains shown)
VH: B1 VH
VL: B1 VL
In the case of B2, the Cyno binding (cynomolgus-NTB-A) is reported as “positive”.

B3: c20F3-vcMMAE(4): chimeric 20F3 vcMMAE auristatin ADC, drug load 4 (conjugate)
VH: B1 VH
VL: B1 VL
modifications: non-natural residues
With B3 the IC50 [1, 11] was >10,000 ng/mL, the IC50 [1, 12] was >10,000 ng/mL and the IC50 [1, 13] was >10,000 ng/mL. For the same molecule, the “ADC concentration with cytotoxic effect on resting B lymphocytes” value [1] was “no cytotoxic effect”, the IC50 [2, 14] was >10,000 ng/mL and the IC50 [2, 15] was >10,000 ng/mL. The IC50 [2, 16] was >10,000 ng/mL.

B4: HDLD: humanized 20F3: HD (SEQ ID NO:8) with LD (SEQ ID NO:18); preferred variant (antibody, V domains shown)
VH: QIQLVQSGSELKKPGASVKVSCKASGYTFTNYGMNWVRQAPGQDLKWMGWINTYSGEPRYADDFKGRFVFSLDKSVNTAYLQISSLKAEDTAVYYCARDYGRWYFDVWGQGTTVTVSS
VL: QIVLSQSPATLSLSPGERATMSCRASSSVSHMHWYQQKPGQAPRPWIYATSNLASGVPARFSGSGSGTDYTLTISSLEPEDFAVYYCQQWSSTPRTFGGGTKVEIKR
modifications: mature heavy chain variable region of humanized 20F3 HD; mature light chain variable region of humanized 20F3 LD
notes: preferred variant
B4 was tested, and the Cyno binding (cynomolgus-NTB-A) was “retained binding; also recorded: positive” and the Kd (human NTB-A) was about 2 nM.

B5: h20F3wt: humanized 20F3 HDLD antibody with wild-type IgG1 (antibody, V domains shown)
VH: B4 VH
VL: B4 VL
B5 was tested, and the “CDC Maximum % Specific Cell Lysis” value (Raji cell line [6]) was 2.1 ± 0.6%, the “CDC Maximum % Specific Cell Lysis” value (Normal human T cells [3]) was 1.3 ± 2.8% and the “CDC Maximum % Specific Cell Lysis” value (WIL2-S cell line [7]) was 0.0 ± 0.0%. For the same molecule, the “ADCC Maximum % Specific Cell Lysis” value (WIL2-S cell line [8]) was 21 ± 0.6% and the “ADCC Maximum % Specific Cell Lysis” value (Normal human T cells [5]) was 38 ± 0.8%.
